Results on 13 molecules are retold here after patent US20260250322A1, “NEW PEPTIDES AS SELECTIVE IL-23 RECEPTOR INHIBITORS” (SANOFI, priority 2023, published 2026).

Numbered stars: 1 amine (or outer) side, 2 acyl side, 3 side chain; on linkers, the order of the positions; unused ones are H or OH. Bridge positions count the residues as written; N and C are the ends. Square brackets hold non-standard residues; d marks the D form. Peptide text beside a SMILES is read from it. Tyr(Me) = Yme = 4-methoxy-L-phenylalanine (O-methyl-tyrosine), COc1ccc(C[C@H](N[*:1])C(=O)[*:2])cc1; 1Nal = N[C@@H](Cc1cccc2ccccc12)C(=O)O; 2Nal = N[C@@H](Cc1ccc2ccccc2c1)C(=O)O; Cit = NC(=O)NCCC[C@H](N)C(=O)O; Orn = NCCC[C@H](N)C(=O)O; Thp = NC1(C(=O)O)CCOCC1; Aib = CC(C)(N)C(=O)O

The subject of assay [1] is IL-23 induced STAT3 signaling. The assay can be described thus: Inhibition of IL-23 induced STAT3 signaling in HEK-Blue IL-23 cells (SEAP reporter). The note with it: human IL-23 0.25 ng/ml, read-out: Inhibition of IL-23 induced pSTAT3 (IC50 nM). The assay is classed as cell-based. The source says: HEK-Blue™ IL-23 cells (Invivogen) are designed for the detection of bioactive human (hIL-23) and murine IL-23 (mIL-23) by monitoring the activation of the STAT3 pathway. Binding of IL-23 to its receptor on the surface of HEK-Blue™ IL-23 cells triggers a signaling cascade leading to the activation of STAT3 and the subsequent production of secreted embryonic alkaline phosphatase (SEAP). This can be readily assessed using QUANTI-Blue™ Solution, a SEAP detection reagent.
HEK-Blue™ IL-23 cells were cultured as described by Invivogen.
On the first day of assay 10 μL of the HEK-Blue IL-23 cell suspension (final concentration: 10,000 cells/well) and 10 μl of serially diluted compound solutions were dispensed into a 384-well assay plate. After pre-incubation of the reaction mixtures at 37° C./5% CO2/95% humidity for 60 minutes, 10 μl of the humanIL-23 cytokine (final concentration: 0.25 ng/ml) was added to each well for the STAT3 signaling activation. The plate was incubated overnight at 37° C./5% CO2/95% humidity.
On the second day 20 μl per well of Quanti-Blue detection solution (prepared according to the manufacture instruction) was dispensed into a new 384-well plate and followed by the transfer of 5 μl supernatant of the overnight incubated cell/sample mixtures. After incubation of 45 min at room temperature signals were measured with PHERAstar (BMG) at OD 620-655 nm.
Dose response data were fitted with XLfit.

Assay [2] has as its target T1, IL-23 receptor on the surface of HEK-Blue IL-23 cells (UniProt Q5VWK5 24-629, limits assumed).
T1 sequence (looked up): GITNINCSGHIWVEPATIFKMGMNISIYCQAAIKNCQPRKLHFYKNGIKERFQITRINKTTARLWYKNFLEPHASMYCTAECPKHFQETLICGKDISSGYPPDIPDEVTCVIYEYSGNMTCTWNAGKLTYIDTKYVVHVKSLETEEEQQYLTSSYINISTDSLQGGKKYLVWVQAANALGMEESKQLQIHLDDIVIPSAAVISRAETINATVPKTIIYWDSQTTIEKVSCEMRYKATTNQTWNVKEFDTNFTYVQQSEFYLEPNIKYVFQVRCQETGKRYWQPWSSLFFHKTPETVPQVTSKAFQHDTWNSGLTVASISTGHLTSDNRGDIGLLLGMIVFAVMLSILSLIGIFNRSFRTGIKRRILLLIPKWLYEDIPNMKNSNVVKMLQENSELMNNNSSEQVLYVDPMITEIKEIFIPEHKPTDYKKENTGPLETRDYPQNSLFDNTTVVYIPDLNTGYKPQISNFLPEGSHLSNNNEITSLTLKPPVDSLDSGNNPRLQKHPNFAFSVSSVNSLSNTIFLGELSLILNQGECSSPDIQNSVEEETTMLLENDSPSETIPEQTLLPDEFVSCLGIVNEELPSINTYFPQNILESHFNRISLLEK
Kind of assay: cell-based or functional assay.

By IC50 is commonly meant the point on the concentration scale where inhibition reaches its midpoint.

Take `CC(=O)N[C@@H]1CCCCNC(=O)C[C@@H](C(=O)N[C@@H](CC(N)=O)C(=O)N[C@@H](CC(N)=O)C(N)=O)NC(=O)C(C)(C)NC(=O)[C@H](Cc2cccc3ccccc23)NC(=O)[C@H](Cc2ccc(O)cc2)NC(=O)[C@H](CCCNC(=N)N)NC(=O)[C@H](CCC(N)=O)NC(=O)[C@H](Cc2c[nH]c3ccccc23)NC(=O)[C@H]([C@@H](C)O)NC(=O)[C@H](CC(N)=O)NC1=O` [compound 14] (Ac-[dK]NTWQRY[1Nal][Aib]DNN-NH2; lactam 1-10): the IC50 in assay [1] is 1380 nM.

Regarding `COc1ccc(C[C@@H]2NC(=O)[C@H](CCCNC(=N)N)NC(=O)[C@H](CCC(N)=O)NC(=O)[C@H](Cc3c[nH]c4ccccc34)NC(=O)[C@H]([C@@H](C)O)NC(=O)[C@H](CC(N)=O)NC(=O)[C@H](NC(C)=O)CCCCNC(=O)CC[C@@H](C(=O)N[C@@H](CC(N)=O)C(=O)N[C@@H](CC(N)=O)C(N)=O)NC(=O)C(C)(C)NC(=O)[C@H](Cc3cccc4ccccc34)NC2=O)cc1` [compound 16] (Ac-[dK]NTWQRY(Me)[1Nal][Aib]ENN-NH2; lactam 1-10), the IC50 in assay [1] came out at 8010 nM.

On to `COc1ccc(C[C@@H]2NC(=O)[C@H](CCCNC(=N)N)NC(=O)[C@H](CCC(N)=O)NC(=O)[C@H](Cc3c[nH]c4ccccc34)NC(=O)[C@H]([C@@H](C)O)NC(=O)[C@H](CC(N)=O)NC(=O)[C@H](NC(C)=O)CCCCNC(=O)C[C@@H](C(=O)N[C@@H](CC(N)=O)C(=O)N[C@@H](CC(N)=O)C(N)=O)NC(=O)[C@H](CCCCNC(C)=O)NC(=O)[C@H](Cc3cccc4ccccc34)NC2=O)cc1` [compound 17] (Ac-[dK]NTWQRY(Me)[1Nal]K(Ac)DNN-NH2; lactam 1-10), for which the IC50 in assay [1] was 5650 nM.

With `COc1ccc(C[C@@H]2NC(=O)[C@H](CCCNC(=N)N)NC(=O)[C@H](CCC(N)=O)NC(=O)[C@H](Cc3c[nH]c4ccccc34)NC(=O)[C@H]([C@@H](C)O)NC(=O)[C@H](CC(N)=O)NC(=O)[C@H](NC(C)=O)CCCCNC(=O)C[C@@H](C(=O)N[C@@H](CC(N)=O)C(=O)N[C@@H](CC(N)=O)C(N)=O)NC(=O)[C@H](CCC(N)=O)NC(=O)[C@H](Cc3cccc4ccccc34)NC2=O)cc1` [compound 19] (Ac-[dK]NTWQRY(Me)[1Nal]QDNN-NH2; lactam 1-10), the IC50 in assay [1] came to 9600 nM.

B1: peptide compound SEQ ID NO: 8 (peptide)
peptide: Ac-[dK]NTWQA[Tyr(Me)][1Nal][Aib]DNN-NH2
modifications: lactam 1-10
SMILES: COc1ccc(C[C@@H]2NC(=O)[C@H](C)NC(=O)[C@H](CCC(N)=O)NC(=O)[C@H](Cc3c[nH]c4ccccc34)NC(=O)[C@H]([C@@H](C)O)NC(=O)[C@H](CC(N)=O)NC(=O)[C@H](NC(C)=O)CCCCNC(=O)C[C@@H](C(=O)N[C@@H](CC(N)=O)C(=O)N[C@@H](CC(N)=O)C(N)=O)NC(=O)C(C)(C)NC(=O)[C@H](Cc3cccc4ccccc34)NC2=O)cc1
B1: the “Inhibition of IL-23 induced pSTAT3 (IC50 nM)” value (from here on “Inhibition”) in assay [2] is 943 nM.

B2: peptide compound SEQ ID NO: 29 (peptide)
peptide: Ac-[dK]NTWQR[Tyr(Me)][2Nal][Cit]DNN-NH2
modifications: lactam 1-10
SMILES: COc1ccc(C[C@@H]2NC(=O)[C@H](CCCNC(=N)N)NC(=O)[C@H](CCC(N)=O)NC(=O)[C@H](Cc3c[nH]c4ccccc34)NC(=O)[C@H]([C@@H](C)O)NC(=O)[C@H](CC(N)=O)NC(=O)[C@H](NC(C)=O)CCCCNC(=O)C[C@@H](C(=O)N[C@@H](CC(N)=O)C(=O)N[C@@H](CC(N)=O)C(N)=O)NC(=O)[C@H](CCCNC(N)=O)NC(=O)[C@H](Cc3ccc4ccccc4c3)NC2=O)cc1
As to B2, the “Inhibition” value in assay [2] turned out to be 2720 nM.

B3: peptide compound SEQ ID NO: 41 (peptide)
peptide: Ac-KNTWQR[Tyr(Me)][2Nal][Thp]DNN-NH2
modifications: lactam 1-10
SMILES: COc1ccc(C[C@@H]2NC(=O)[C@H](CCCNC(=N)N)NC(=O)[C@H](CCC(N)=O)NC(=O)[C@H](Cc3c[nH]c4ccccc34)NC(=O)[C@H]([C@@H](C)O)NC(=O)[C@H](CC(N)=O)NC(=O)[C@@H](NC(C)=O)CCCCNC(=O)C[C@@H](C(=O)N[C@@H](CC(N)=O)C(=O)N[C@@H](CC(N)=O)C(N)=O)NC(=O)C3(CCOCC3)NC(=O)[C@H](Cc3ccc4ccccc4c3)NC2=O)cc1
With B3, the “Inhibition” value in assay [2] amounted to 221 nM.

B4: peptide compound SEQ ID NO: 5 (peptide)
peptide: Ac-[dK]NTWQR[Tyr(Me)][2Nal][Aib]ENN-NH2
modifications: lactam 1-10
SMILES: COc1ccc(C[C@@H]2NC(=O)[C@H](CCCNC(=N)N)NC(=O)[C@H](CCC(N)=O)NC(=O)[C@H](Cc3c[nH]c4ccccc34)NC(=O)[C@H]([C@@H](C)O)NC(=O)[C@H](CC(N)=O)NC(=O)[C@H](NC(C)=O)CCCCNC(=O)CC[C@@H](C(=O)N[C@@H](CC(N)=O)C(=O)N[C@@H](CC(N)=O)C(N)=O)NC(=O)C(C)(C)NC(=O)[C@H](Cc3ccc4ccccc4c3)NC2=O)cc1
Turning to B4, the “Inhibition” value in assay [2] worked out at 432 nM.

B5: peptide compound SEQ ID NO: 32 (peptide)
peptide: Ac-[dK]NTWQ[Aib][Tyr(Me)][2Nal][Aib]DNN-NH2
modifications: lactam 1-10
SMILES: COc1ccc(C[C@@H]2NC(=O)C(C)(C)NC(=O)[C@H](CCC(N)=O)NC(=O)[C@H](Cc3c[nH]c4ccccc34)NC(=O)[C@H]([C@@H](C)O)NC(=O)[C@H](CC(N)=O)NC(=O)[C@H](NC(C)=O)CCCCNC(=O)C[C@@H](C(=O)N[C@@H](CC(N)=O)C(=O)N[C@@H](CC(N)=O)C(N)=O)NC(=O)C(C)(C)NC(=O)[C@H](Cc3ccc4ccccc4c3)NC2=O)cc1
Take B5: the “Inhibition” value in assay [2] came to 320 nM.

B6: peptide compound SEQ ID NO: 31 (peptide)
peptide: Ac-[dK]NTWQV[Tyr(Me)][2Nal][Aib]DNN-NH2
modifications: lactam 1-10
SMILES: COc1ccc(C[C@@H]2NC(=O)[C@H](C(C)C)NC(=O)[C@H](CCC(N)=O)NC(=O)[C@H](Cc3c[nH]c4ccccc34)NC(=O)[C@H]([C@@H](C)O)NC(=O)[C@H](CC(N)=O)NC(=O)[C@H](NC(C)=O)CCCCNC(=O)C[C@@H](C(=O)N[C@@H](CC(N)=O)C(=O)N[C@@H](CC(N)=O)C(N)=O)NC(=O)C(C)(C)NC(=O)[C@H](Cc3ccc4ccccc4c3)NC2=O)cc1
In the case of B6, in assay [2], the “Inhibition” value came out at 128 nM.

B7: peptide compound SEQ ID NO: 6 (peptide)
peptide: Ac-DNTWQR[Tyr(Me)][2Nal][Aib][Orn]NN-NH2
modifications: lactam 1-10
SMILES: COc1ccc(C[C@@H]2NC(=O)[C@H](CCCNC(=N)N)NC(=O)[C@H](CCC(N)=O)NC(=O)[C@H](Cc3c[nH]c4ccccc34)NC(=O)[C@H]([C@@H](C)O)NC(=O)[C@H](CC(N)=O)NC(=O)[C@@H](NC(C)=O)CC(=O)NCCC[C@@H](C(=O)N[C@@H](CC(N)=O)C(=O)N[C@@H](CC(N)=O)C(N)=O)NC(=O)C(C)(C)NC(=O)[C@H](Cc3ccc4ccccc4c3)NC2=O)cc1
For the molecule B7, the “Inhibition” value in assay [2] stood at 366 nM.

B8: peptide compound SEQ ID NO: 3 (peptide)
peptide: Ac-[dK]NTWQR[Tyr(Me)][2Nal][Aib]DNN-NH2
modifications: lactam 1-10
SMILES: COc1ccc(C[C@@H]2NC(=O)[C@H](CCCNC(=N)N)NC(=O)[C@H](CCC(N)=O)NC(=O)[C@H](Cc3c[nH]c4ccccc34)NC(=O)[C@H]([C@@H](C)O)NC(=O)[C@H](CC(N)=O)NC(=O)[C@H](NC(C)=O)CCCCNC(=O)C[C@@H](C(=O)N[C@@H](CC(N)=O)C(=O)N[C@@H](CC(N)=O)C(N)=O)NC(=O)C(C)(C)NC(=O)[C@H](Cc3ccc4ccccc4c3)NC2=O)cc1
In the case of B8, the “Inhibition” value in assay [2] was 430 nM.

B9: peptide compound SEQ ID NO: 7 (peptide)
peptide: Ac-[dK]NTWQL[Tyr(Me)][1Nal][Aib]DNN-NH2
modifications: lactam 1-10
SMILES: COc1ccc(C[C@@H]2NC(=O)[C@H](CC(C)C)NC(=O)[C@H](CCC(N)=O)NC(=O)[C@H](Cc3c[nH]c4ccccc34)NC(=O)[C@H]([C@@H](C)O)NC(=O)[C@H](CC(N)=O)NC(=O)[C@H](NC(C)=O)CCCCNC(=O)C[C@@H](C(=O)N[C@@H](CC(N)=O)C(=O)N[C@@H](CC(N)=O)C(N)=O)NC(=O)C(C)(C)NC(=O)[C@H](Cc3cccc4ccccc34)NC2=O)cc1
On to B9, for which the “Inhibition” value in assay [2] stood at 850 nM.
